According to patent US20080213817:

What was measured:
[1] = tested on: GST-c-Jun fusion protein [GST: P08515]
E3 ubiquitin ligase Itch = E3 ubiquitin ligase Itch (UniProt Q8C863)
Chain of E3 ubiquitin ligase Itch (UniProt Q8C863) (Q8C863 2-864): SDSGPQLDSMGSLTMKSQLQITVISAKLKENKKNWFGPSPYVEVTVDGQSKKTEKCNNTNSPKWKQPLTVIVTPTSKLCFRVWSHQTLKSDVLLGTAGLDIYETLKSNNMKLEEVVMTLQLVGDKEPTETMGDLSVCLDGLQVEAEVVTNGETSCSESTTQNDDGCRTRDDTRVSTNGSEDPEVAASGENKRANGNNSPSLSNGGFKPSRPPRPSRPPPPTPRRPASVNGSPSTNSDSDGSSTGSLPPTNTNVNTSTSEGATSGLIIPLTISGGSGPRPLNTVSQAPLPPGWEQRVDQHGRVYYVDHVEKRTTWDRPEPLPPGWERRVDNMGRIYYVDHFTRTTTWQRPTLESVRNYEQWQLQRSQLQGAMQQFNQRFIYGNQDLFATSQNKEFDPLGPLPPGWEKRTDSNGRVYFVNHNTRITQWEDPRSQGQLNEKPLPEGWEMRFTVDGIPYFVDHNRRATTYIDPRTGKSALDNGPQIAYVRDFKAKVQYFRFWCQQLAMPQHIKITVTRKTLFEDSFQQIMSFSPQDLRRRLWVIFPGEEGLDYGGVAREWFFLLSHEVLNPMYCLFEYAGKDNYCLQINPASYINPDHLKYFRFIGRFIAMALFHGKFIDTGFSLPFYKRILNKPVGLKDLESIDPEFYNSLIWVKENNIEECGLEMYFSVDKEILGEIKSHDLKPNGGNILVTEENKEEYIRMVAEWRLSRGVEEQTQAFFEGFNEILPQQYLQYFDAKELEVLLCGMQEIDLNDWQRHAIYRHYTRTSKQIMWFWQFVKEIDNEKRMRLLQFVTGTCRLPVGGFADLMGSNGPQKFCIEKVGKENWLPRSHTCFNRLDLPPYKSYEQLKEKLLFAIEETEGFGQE

Chain of GST-c-Jun fusion protein [GST: P08515] (P08515 whole entry, looked up, the tested form may be a part): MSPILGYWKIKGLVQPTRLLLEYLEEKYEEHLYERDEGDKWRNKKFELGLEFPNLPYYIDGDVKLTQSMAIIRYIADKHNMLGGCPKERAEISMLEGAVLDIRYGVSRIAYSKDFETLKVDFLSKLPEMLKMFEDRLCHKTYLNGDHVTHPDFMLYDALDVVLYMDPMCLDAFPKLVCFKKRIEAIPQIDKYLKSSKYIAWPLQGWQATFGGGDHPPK
Chain of E3 ubiquitin ligase Itch (chain, as listed by the source): as the sequence (Q8C863 2-864) above

| Substance | polyubiquitination of c-Jun (in vitro ubiquitination assay, immunoblot with anti-c-Jun) [1] | Itch phosphorylation (in vitro kinase reaction with [gamma-32P]ATP, autoradiography) (E3 ubiquitin ligase Itch) |
| --- | --- | --- |
| E3 ubiquitin ligase Itch | Itch isolated from primary T cells mediated polyubiquitination of c-Jun in a manner dependent on E1 and E2 |  |
| c-Jun N-terminal kinase 1 (JNK1), active |  | Incubation of Itch with active JNK1 also led to its efficient phosphorylation |
